Results taken from the supplement of paper PMC10724198.
± gives the standard deviation of the averaged measurements.

Tests used:
[1] = tested on: Saccharomyces cerevisiae; assay: protein stability index of tFT-peptide fusion (C-terminal peptide) (PSI (0-1 scale)); higher = more stable (slower turnover)
Experimental: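 MPS profiling in S. cerevisiae of the tFT-X12 degron library: putative degron peptides plus stable controls, 12 aa, fused to the C-terminus of a sfGFP-mCherry timer. Cells are FACS-sorted into 8 mCherry/sfGFP bins and deep-sequenced. PSI runs from 0 (unstable) to 1 (stable). Backgrounds are wild type, das1Δ and doa10Δ at 30 °C, and wild type, das1Δ, cdc34-1 and cdc53-1 at 37 °C; 2-3 technical replicates each.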

[2] = tested on: Saccharomyces cerevisiae; assay: as above; settings: genetic background: wild type; temperature: 30 C
[3] = genetic background: cdc34-1, temperature: 37 C
[4] = genetic background: cdc53-1, temperature: 37 C
[5] = genetic background: das1 deletion, temperature: 30 C
[6] = genetic background: das1 deletion, temperature: 37 C
[7] = genetic background: doa10 deletion, temperature: 30 C
[8] = genetic background: wild type, temperature: 30 C
[9] = genetic background: wild type, temperature: 37 C
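Also: PSI is a weighted mean of sequencing reads over stability bins, variants kept only with over 10 reads, mCherry proximal and sfGFP distal, peptide attached via GGGS linker.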

Sequence	protein stability index [1, 3]	protein stability index [1, 4]	protein stability index [1, 5]	protein stability index [1, 6]	protein stability index [1, 7]	protein stability index [1, 8]	protein stability index [1, 9]	protein stability index [2]
SLSIFCLMLMLF	0.564 ± 0.04	0.601 ± 0.029	0.467 ± 0.016	0.565 ± 0.025	0.425 ± 0.015	0.406 ± 0.021	0.512 ± 0.012	0.4537 ± 0.0037
IFFVLVFFPGFF	0.483 ± 0.036	0.541 ± 0.022	0.366 ± 0.035	0.548 ± 0.014	0.359 ± 0.023	0.374 ± 0.0071	0.506 ± 0.012	0.443 ± 0.06
CLFHQFITLLVN	0.0942 ± 0.009	0.177 ± 0.012	0.222 ± 0.026	0.2692 ± 0.0019	0.0508 ± 0.017	0.0593 ± 0.0052	0.0523 ± 0.01	0.0965 ± 0.019
YQKIARVSLAVS	0.466 ± 0.015	0.512 ± 0.02	0.347 ± 0.038	0.526 ± 0.014	0.27 ± 0.021	0.328 ± 0.025	0.4779 ± 0.0035	0.424 ± 0.015
VSISLCVLCPVF	0.268 ± 0.01	0.319 ± 0.016	0.258 ± 0.024	0.356 ± 0.0076	0.2408 ± 0.0018	0.261 ± 0.016	0.312 ± 0.008	0.349 ± 0.018
VDGVSFFVVLLC	0.406 ± 0.087	0.503 ± 0.0085	0.343 ± 0.029	0.537 ± 0.0077	0.189 ± 0.0091	0.198 ± 0.026	0.427 ± 0.0064	0.311 ± 0.036
KYQVIILQTRKI	0.578 ± 0.014	0.754 ± 0.0091	0.634 ± 0.063	0.765 ± 0.032	0.201 ± 0.064	0.252 ± 0.053	0.491 ± 0.02	0.398 ± 0.0041
VCILLVAWCLMG	0.168 ± 0.023	0.289 ± 0.049	0.24 ± 0.022	0.384 ± 0.0058	0.108 ± 0.02	0.124 ± 0.02	0.1546 ± 0.00053	0.217 ± 0.0097
RVFVGLVDFLFW	0.437 ± 0.033	0.553 ± 0.073	0.402 ± 0.025	0.6062 ± 0.0026	0.37 ± 0.019	0.394 ± 0.033	0.57 ± 0.035	0.471 ± 0.072
ARRFLVRRFILF	0.545 ± 0.019	0.65822 ± 0.00018	0.586 ± 0.0066	0.683 ± 0.026	0.187 ± 0.018	0.189 ± 0.021	0.326 ± 0.033	0.282 ± 0.0087
VCVFFRLCIVWY	0.061 ± 0.0092	0.101 ± 0.0031	0.127 ± 0.017	0.171 ± 0.0065	0.115 ± 0.013	0.103 ± 0.021	0.145 ± 0.012	0.174 ± 0.036
SFLCGCVVCWLW	0.464 ± 0.063	0.547 ± 0.039	0.397 ± 0.026	0.552 ± 0.011	0.4 ± 0.027	0.396 ± 0.014	0.505 ± 0.0073	0.449 ± 0.04
FMPFSLLALFVW	0.286 ± 0.00069	0.318 ± 0.0033	0.267 ± 0.02	0.372 ± 0.0064	0.2321 ± 0.0021	0.241 ± 0.041	0.328 ± 0.0069	0.343 ± 0.017
VTFWISLVYVLV	0.192 ± 0.015	0.264 ± 0.022	0.18 ± 0.023	0.35 ± 0.0028	0.148 ± 0.0088	0.16 ± 0.017	0.279 ± 0.027	0.218 ± 0.011
CLTGWFGIFSAP	0.708 ± 0.019	0.755 ± 0.025	0.678 ± 0.016	0.763 ± 0.02	0.695 ± 0.015	0.688 ± 0.027	0.737 ± 0.015	0.7344 ± 0.0021
VGAVGVCILFVW	0.203 ± 0.0086	0.356 ± 0.014	0.242 ± 0.044	0.424 ± 0.0061	0.195 ± 0.016	0.232 ± 0.042	0.43 ± 0.013	0.35 ± 0.038
LINHSWLLLSVL	0.368 ± 0.017	0.432 ± 0.036	0.363 ± 0.038	0.521 ± 0.026	0.14246 ± 3.7e-05	0.133 ± 0.018	0.1583 ± 0.00095	0.325 ± 0.035
SSVLWVMFVFFY	0.313 ± 0.026	0.387 ± 0.0063	0.309 ± 0.058	0.442 ± 0.0026	0.264 ± 0.0091	0.253 ± 0.067	0.387 ± 0.027	0.436 ± 0.058
LFSIFMSYRVYI	0.35 ± 0.037	0.435 ± 0.021	0.383 ± 0.07	0.486 ± 0.017	0.302 ± 0.03	0.312 ± 0.0037	0.44 ± 0.031	0.411 ± 0.02
RFHTFVFCLLCL	0.407 ± 0.062	0.438 ± 0.018	0.432 ± 0.02	0.516 ± 0.026	0.2796 ± 0.00049	0.277 ± 0.015	0.386 ± 0.015	0.328 ± 0.06
